Reference: patent US20190177417A1 (BIOATLA, published 2019)
Residue numbers refer to the chain shown, from its start. Numbers in names are those of the source.

T1: Axl protein (human, UniProt P30530 26-451)
T1 construct: extracellular domain; also called human Axl; hAxl
T1 sequence (looked up): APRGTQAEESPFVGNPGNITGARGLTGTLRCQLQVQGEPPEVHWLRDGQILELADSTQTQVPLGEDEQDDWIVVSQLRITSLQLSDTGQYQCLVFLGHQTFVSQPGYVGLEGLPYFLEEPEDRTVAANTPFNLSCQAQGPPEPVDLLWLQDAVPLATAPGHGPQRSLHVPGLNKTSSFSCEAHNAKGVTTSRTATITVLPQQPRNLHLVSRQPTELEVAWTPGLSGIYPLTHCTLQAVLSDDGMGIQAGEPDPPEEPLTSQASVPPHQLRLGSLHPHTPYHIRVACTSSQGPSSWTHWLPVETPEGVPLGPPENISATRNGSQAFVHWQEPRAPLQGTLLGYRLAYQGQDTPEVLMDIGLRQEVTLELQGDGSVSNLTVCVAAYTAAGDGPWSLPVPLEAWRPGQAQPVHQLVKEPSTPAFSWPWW

B1: HC-M107E (antibody, V domains shown)
VH: EVQLVQSGAEVKKPGATVKISCKVSGYSFTGHTMNWIRQPPGKGLEWIGLIKPSNGGTSYNQKFKGRVTISADKSISTAYLQWSSLKASDTAMYYCAHGHYESYFAEDYWGQGTLVTVSS
VL: DIQMTQSPSSLSASVGDRVTITCKASQDVSSAVAWYQQKPGQAPRLLIYWASTRHTGVPSRFSGSGSGTEFTLTISSLQPDDFATYYCQEHFSTPLTFGQGTKVEIK
B2: HC-A106D (antibody, V domains shown)
VH: B1 VH with A106D, E107M
VL: B1 VL
B3: HC-W110T (antibody, V domains shown)
VH: B1 VH with E107M, W110T
VL: B1 VL
B4: HC-G111H (antibody, V domains shown)
VH: B1 VH with E107M, G111H
VL: B1 VL
B5: HC-W110N (antibody, V domains shown)
VH: B1 VH with E107M, W110N
VL: B1 VL
B6: HC-W110R (antibody, V domains shown)
VH: B1 VH with E107M, W110R
VL: B1 VL
B7: HC-M107F (antibody, V domains shown)
VH: B1 VH with E107F
VL: B1 VL
B8: HC-A106Y (antibody, V domains shown)
VH: B1 VH with A106Y, E107M
VL: B1 VL
B9: HC-A106G (antibody, V domains shown)
VH: B1 VH with A106G, E107M
VL: B1 VL
B10: HC-W110A (antibody, V domains shown)
VH: B1 VH with E107M, W110A
VL: B1 VL
B11: HC-A106L (antibody, V domains shown)
VH: B1 VH with A106L, E107M
VL: B1 VL
B12: HC-E102M (antibody, V domains shown)
VH: B1 VH with E102M, E107M
VL: B1 VL
B13: HC-E102H (antibody, V domains shown)
VH: B1 VH with E102H, E107M
VL: B1 VL
B14: HC-W110L (antibody, V domains shown)
VH: B1 VH with E107M, W110L
VL: B1 VL
B15: HC-W110D (antibody, V domains shown)
VH: B1 VH with E107M, W110D
VL: B1 VL
B16: HC-W110P (antibody, V domains shown)
VH: B1 VH with E107M, W110P
VL: B1 VL
B17: LC-V029D (antibody, V domains shown)
VH: B1 VH with E107M
VL: B1 VL with V29D
B18: LC-V029W (antibody, V domains shown)
VH: B1 VH with E107M
VL: B1 VL with V29W
B19: LC-F092C (antibody, V domains shown)
VH: B1 VH with E107M
VL: B1 VL with F92C
B20: LC-H091V (antibody, V domains shown)
VH: B1 VH with E107M
VL: B1 VL with H91V
B21: LC-H091Y (antibody, V domains shown)
VH: B1 VH with E107M
VL: B1 VL with H91Y
B22: LC-F092G (antibody, V domains shown)
VH: B1 VH with E107M
VL: B1 VL with F92G
B23: LC-V029N (antibody, V domains shown)
VH: B1 VH with E107M
VL: B1 VL with V29N
B24: LC-V029G (antibody, V domains shown)
VH: B1 VH with E107M
VL: B1 VL with V29G
B25: LC-A032M (antibody, V domains shown)
VH: B1 VH with E107M
VL: B1 VL with A32M
B26: LC-A034Q (antibody, V domains shown)
VH: B1 VH with E107M
VL: B1 VL with A34Q
B27: LC-H091S (antibody, V domains shown)
VH: B1 VH with E107M
VL: B1 VL with H91S
B28: LC-H091T (antibody, V domains shown)
VH: B1 VH with E107M
VL: B1 VL with H91T
B29: LC-A034D (antibody, V domains shown)
VH: B1 VH with E107M
VL: B1 VL with A34D
B30: LC-A032L (antibody, V domains shown)
VH: B1 VH with E107M
VL: B1 VL with A32L
B31: LC-F092D (antibody, V domains shown)
VH: B1 VH with E107M
VL: B1 VL with F92D
B32: LC-F092E (antibody, V domains shown)
VH: B1 VH with E107M
VL: B1 VL with F92E
B33: LC-A034N (antibody, V domains shown)
VH: B1 VH with E107M
VL: B1 VL with A34N

These binders were tested against T1, Axl protein (assay: ELISA, 1:3 dilution, pH 6.0 over pH 7.4).

| Affinity ELISA CPE mutant ratio (1:3, pH 6.0/7.4) [ratio] | Binder |
| --- | --- |
| 2.16 | B1 |
| 3.39 | B2 |
| 7.47 | B3 |
| 1.06 | B4 |
| 4.3 | B5 |
| 5.99 | B6 |
| 20.6 | B7 |
| 3.29 | B8 |
| 1.52 | B9 |
| 7.91 | B10 |
| 21.5 | B11 |
| 2.08 | B12 |
| 2.08 | B13 |
| 8.22 | B14 |
| 3.72 | B15 |
| 6.49 | B16 |

What follows are binders tested against T1, Axl protein (assay: ELISA, 1:9 dilution, pH 6.0 over pH 7.4).

| Affinity ELISA CPE mutant ratio (1:9, pH 6.0/7.4) [ratio] | Binder |
| --- | --- |
| 1.36 | B1 |
| 2.51 | B2 |
| 1.37 | B3 |
| 1.79 | B4 |
| 0.8 | B5 |
| 1.06 | B6 |
| 1.09 | B7 |
| 3.06 | B8 |
| 2.2 | B9 |
| 1.2 | B10 |
| 1.61 | B11 |
| 2.36 | B12 |
| 2.31 | B13 |
| 0.924 | B14 |
| 1.11 | B15 |
| 2.15 | B16 |

Biological target: T1, Axl protein
Test: ELISA, 1:3 dilution, pH 6.0 over pH 7.4
Remark: another data set of the same source

| Affinity ELISA CPE mutant ratio (1:3, pH 6.0/7.4) [ratio] | Binder |
| --- | --- |
| 2.88 | B17 |
| 2.31 | B18 |
| 3.86 | B19 |
| 4.13 | B20 |
| 3.93 | B21 |
| 3.69 | B22 |
| 2.6 | B23 |
| 1.94 | B24 |
| 4.76 | B25 |
| 2 | B26 |
| 1.76 | B27 |
| 3.78 | B28 |
| 3 | B29 |
| 1.98 | B30 |
| 2.97 | B31 |
| 1.76 | B32 |
| 2.63 | B33 |

Biological target: T1, Axl protein
Test: ELISA, 1:9 dilution, pH 6.0 over pH 7.4
Remark: another data set of the same source

| Affinity ELISA CPE mutant ratio (1:9, pH 6.0/7.4) [ratio] | Binder |
| --- | --- |
| 2.68 | B17 |
| 2.35 | B18 |
| 4.58 | B19 |
| 1.17 | B20 |
| 5.13 | B21 |
| 4.76 | B22 |
| 2.65 | B23 |
| 1.8 | B24 |
| 2.92 | B25 |
| 1.41 | B26 |
| 1.34 | B27 |
| 3.78 | B28 |
| 2.6 | B29 |
| 2.27 | B30 |
| 2.94 | B31 |
| 2 | B32 |
| 2.4 | B33 |
